In patent publication US20220348651A1, “ENTPD2 ANTIBODIES, COMBINATION THERAPIES, AND METHODS OF USING THE ANTIBODIES AND COMBINATION THERAPIES” (Novartis AG, priority 2019, published 2022):

What was measured:
NIH/3T3 cells = assay: Cross reactivity: FACS binding to NIH/3T3 control cells; conditions: 50 nM antibody
Protocol: (§1) FACS screening: Specific binding of candidate antibodies to endogenously expressed ENTPD2 was assessed by flow cytometry. Cells were rinsed thoroughly with 1×PBS and treated with Accutase (Millipore #SCR005) to lift from growth plates and resuspended at approximately 1×10^5 cells/90 μL in 1× FACS buffer (2% FBS+0.1% NaN3 in PBS). In a 96-well U-bottom plate, 10 μL of 10× antibody solution in FACS buffer was pre-seeded and 90 μL of cell suspension was added. Cell were incubated for 30 minutes at 4° C., washed 1× with cold PBS and resuspended in 100 μL of 1:500 secondary antibody 1× FACS buffer (Allophycocyanin conjugated F(ab′)2 goat anti-human IgG, Fcγ specific; Jackson Immunoresearch, Cat#109-136-098). After additional incubation for 15 min at 4° C., cells were washed twice with PBS and resuspended in 100 μL of 1×FACS buffer with 4 μg/mL propidium iodide (Life Technologies, Cat#P3566). Geometric mean fluorescence intensity was calculated on live single cells using FlowJo software.
(§2) Cross reactivity Human ENTPD1 (NP_001767) expressing NIH/3T3 cells were generated using a retroviral transduction approach. 72 hrs post transduction, engineered cells were stained with the anti-Human CD39/ENTPD1 APC-conjugated Antibody (R&D systems, Minneapolis, Minn.) and live cells that expressed human ENTPD1 were separated from the rest of the population via fluorescence activated cell sorting. […]

Human ENTPD1 = target: T1, Human ENTPD1 (Homo sapiens, UniProt P49961); assay: Cross reactivity: FACS binding to human ENTPD1 expressing NIH/3T3 cells; conditions: NIH/3T3-ENTPD1 cells, 50 nM antibody
T1 construct: expressed in transfected cells; host or cells: NIH/3T3 (retroviral transduction, FACS-sorted)
T1 sequence (P49961 1-510): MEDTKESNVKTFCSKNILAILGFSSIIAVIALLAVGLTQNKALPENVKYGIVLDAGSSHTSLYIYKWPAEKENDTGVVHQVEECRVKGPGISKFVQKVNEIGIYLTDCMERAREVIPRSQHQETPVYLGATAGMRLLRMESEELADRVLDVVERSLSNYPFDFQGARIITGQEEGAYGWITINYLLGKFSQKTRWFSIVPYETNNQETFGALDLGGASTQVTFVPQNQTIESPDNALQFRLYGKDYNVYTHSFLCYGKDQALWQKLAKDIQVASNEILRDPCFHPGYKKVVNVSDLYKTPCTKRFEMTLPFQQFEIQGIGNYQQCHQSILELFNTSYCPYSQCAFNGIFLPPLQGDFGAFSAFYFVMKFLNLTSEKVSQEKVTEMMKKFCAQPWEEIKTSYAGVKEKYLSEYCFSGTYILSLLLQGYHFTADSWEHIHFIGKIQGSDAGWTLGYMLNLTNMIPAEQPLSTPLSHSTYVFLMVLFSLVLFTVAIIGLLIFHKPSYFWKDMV
Protocol: as §1, §2

H520 cells = assay: Cross reactivity: FACS binding to H520 cells (ENTPD3 and ENTPD8 expression); design: species or system human; conditions: 50 nM antibody
Protocol: as §1
H520 cells were identified as a cancer cell line with ENTPD3 (Ct 25) and ENTPD8 (Ct 26) expression by Taqman and were used for selectivity screening.

mouse ENTPD2 = target: T2, mouse ENTPD2 (Mus musculus, UniProt O55026); assay: Antibody specificity: binding to mouse ENTPD2; conditions: Mouse ENTPD2
T2 construct: residues 29-462 of mouse or rat ENTPD2 (the extracellular domain); mouse IgK signal peptide (N); His6; made in house; host or cells: FreeStyle 293-F cells, transient transfection
T2 sequence (O55026 29-462): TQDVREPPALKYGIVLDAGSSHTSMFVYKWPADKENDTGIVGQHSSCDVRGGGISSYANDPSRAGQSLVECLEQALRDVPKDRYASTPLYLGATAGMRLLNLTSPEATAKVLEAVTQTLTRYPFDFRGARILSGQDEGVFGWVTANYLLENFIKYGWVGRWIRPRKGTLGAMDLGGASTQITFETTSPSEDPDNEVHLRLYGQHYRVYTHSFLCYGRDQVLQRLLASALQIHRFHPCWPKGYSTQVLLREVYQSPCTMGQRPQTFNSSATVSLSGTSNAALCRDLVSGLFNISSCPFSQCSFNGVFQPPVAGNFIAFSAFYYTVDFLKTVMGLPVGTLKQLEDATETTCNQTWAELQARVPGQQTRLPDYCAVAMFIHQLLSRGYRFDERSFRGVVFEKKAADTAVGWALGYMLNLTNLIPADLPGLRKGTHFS
Source text: Antibody specificity for mAbl-mAblO was confirmed. […] Antibodies mAb8, mAb9, and mAb10 show weak affinity to mouse ENTPD2. None of the selected antibodies bind to rat ENTPD2.

[1] = test system: cynomologus (cyno) ENTPD2; assay: Biacore (SPR) affinity to cyno ENTPD2 ECD; assay type: binding, cynomolgus monkey; conditions: 25° C.
Sequence of cynomologus (cyno) ENTPD2 (as listed by the source): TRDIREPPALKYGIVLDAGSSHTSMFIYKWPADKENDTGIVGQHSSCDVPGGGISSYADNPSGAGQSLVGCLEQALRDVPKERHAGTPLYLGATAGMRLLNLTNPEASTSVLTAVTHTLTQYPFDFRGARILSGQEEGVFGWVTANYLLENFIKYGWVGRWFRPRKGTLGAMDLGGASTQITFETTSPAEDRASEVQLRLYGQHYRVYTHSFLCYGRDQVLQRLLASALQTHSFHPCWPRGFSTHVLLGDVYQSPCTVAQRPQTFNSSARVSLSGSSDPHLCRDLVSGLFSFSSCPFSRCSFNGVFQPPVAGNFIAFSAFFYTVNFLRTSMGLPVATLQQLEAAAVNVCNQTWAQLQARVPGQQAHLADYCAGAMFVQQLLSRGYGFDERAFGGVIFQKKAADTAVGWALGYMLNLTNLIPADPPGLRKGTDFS
Protocol: (§3) Biacore Screening: Affinity was measured by determining the kinetic rate constants using surface plasmon resonance (SPR) on a Biacore T200 or T100 with the T200 sensitivity upgrade instrument (Biacore, GE Healthcare). Antibodies were captured on CM5 sensor chips (Biacore, GE Healthcare) prepared with a mouse anti-human IgG Fc antibody (ThermoFisher catalogue #05-4200) amine coupled to the surface. […] ENTPD2 analytes were allowed to associate for 180 s and dissociate for up to 1800 s depending on the off-rate of the antibody at a flow rate of 30 μL/min. The running buffer was PBS pH 7.2 (prepared from a Corning 10X stock, cat#46-013-CM)+0.05% Tween 20. Regeneration was accomplished with 30 s injections of 3 or 4 M MgCl2 to remove all the captured antibody and remaining complex from the surface, after which fresh antibody was captured. The raw data were analyzed using Biacore T200 Evaluation Software version 1.0 and fit to a 1:1 binding model, with all parameters set to fit globally except for RI, which was set to fit locally.

[2] = test system: human ENTPD2 engineered B16LM3 clone B5; assay: Human ENTPD2 engineered B16LM3 clone B5 model, dose response with anti-PD-1 Ab; assay type: in vivo
Source text: This model was derived from the B16LM3 melanoma model, where endogenous mouse ENTPD2 expression was knocked out via a transient electroporation of CAS9 protein with CRISPR guide RNA sequences against mouse ENTPD2, and human ENTPD2 was overexpressed using a retroviral transduction approach.
Once tumors reached approximately 35-50 mm^3, mice were randomized according to tumor volume into treatment groups (n=8 per group). […] All doses were adjusted to individual mouse body weights.

human ENTPD2 = target: T3, human ENTPD2 (Homo sapiens, UniProt Q9Y5L3); assay: Biacore (SPR) affinity to human ENTPD2 ECD; assay type: binding; conditions: 25° C.
T3 construct: residues 29-462 of human or cyno ENTPD2 were cloned into expression vector; GP67 signal peptide (N); made in house; host or cells: High Five (Trichoplusia ni) insect cells, baculovirus
T3 sequence (Q9Y5L3 29-462): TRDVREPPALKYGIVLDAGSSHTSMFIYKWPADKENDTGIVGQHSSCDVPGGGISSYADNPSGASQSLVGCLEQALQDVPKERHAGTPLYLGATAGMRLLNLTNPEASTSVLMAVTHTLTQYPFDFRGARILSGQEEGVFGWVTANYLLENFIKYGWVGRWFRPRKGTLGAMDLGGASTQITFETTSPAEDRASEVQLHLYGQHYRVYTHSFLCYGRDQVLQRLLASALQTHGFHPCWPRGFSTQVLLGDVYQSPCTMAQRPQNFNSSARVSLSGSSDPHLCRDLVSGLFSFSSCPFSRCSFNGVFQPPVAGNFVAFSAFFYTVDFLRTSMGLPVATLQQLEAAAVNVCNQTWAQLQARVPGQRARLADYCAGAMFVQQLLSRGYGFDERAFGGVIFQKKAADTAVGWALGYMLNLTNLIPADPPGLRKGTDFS
Protocol: as §3

[3] = Day 7, mAb 10 mg/kg dosed D1, no anti-PD-1 Ab

B1: mAb6: humanized anti-human ENTPD2 antibody from mAb16; VH SEQ ID NO: 70, VL SEQ ID NO: 74 (antibody, V domains shown)
VH: QVQLQESGPGLVKPSQTLSLTCTVSGYSITSGYYWNWIRQHPGKGLEWMGYISYDADNNYNPSLKNRITISRDTSKNQFSLKLSSVTAADTAVYYCAGGYYRYGLGSYSGSYYYVMDYWGQGTTVTVSS
VL: DTQMTQSPSSLSVSVGDRATITCKASQSVDYEGHSYMNWYQQKPGKAPKLLIYAASNLESGVPSRFSGSGSGTDFTLTISSVQPEDFATYYCQQSNEDPPTFGGGTKLEIK
For B1, the “Apparent FACS binding at 50 nM” value (NIH/3T3 cells) was “No binding”, the “Apparent FACS binding at 50 nM” value (Human ENTPD1) was “No binding” and the “Apparent FACS binding at 50 nM” value (H520 cells) was “No binding”. The “BIACore KD” value (mouse ENTPD2) was “No binding”, the ka [1] was 290000 M⁻¹ s⁻¹ and the kd [1] was 0.01 s⁻¹. For the same molecule, the ΔT/ΔC ([2]; 0.1 mg/kg i.v. day 1, combination with anti-PD-1 Ab fixed dose 10 mg/kg, Day 7) was 41.0%, the ΔT/ΔC ([2]; 1 mg/kg i.v. day 1, combination with anti-PD-1 Ab fixed dose 10 mg/kg, Day 7) was 27.3% and the ΔT/ΔC ([2]; 10 mg/kg i.v. day 1, combination with anti-PD-1 Ab fixed dose 10 mg/kg, Day 7) was 29.2%. For the same molecule, the “Host Response Survival (alive/total)” value [2, 3] was 8/8, the “Host Response Δ body weight” value [2, 3] was −0.1% and the “Tumor Response ΔT/ΔC” value [2, 3] was 60.0%. The anti-tumor efficacy ([2]; as single agents, i.v. day 1) was “No significant anti-tumor efficacy”, the ka (human ENTPD2) was 350000 M⁻¹ s⁻¹ and the kd (human ENTPD2) was 0.00026 s⁻¹.
